In patent publication US20210154314A1 one finds IC50 data, which are given here for one molecule.

Experiment [1] deals with Her2 (ErbB2) (UniProt P04626). Nature of the experiment: ligand binding assay ('Binding Activity'), format not described; lyophilized formula B2 after 37 C for 1 month.
Experiment [2] has as its target Her2 (ErbB2) (UniProt P04626). In words: ligand binding assay ('Binding Activity'), format not described; lyophilized formula B4 after 37 C for 1 month.
Experiment [3] addresses Her2 (ErbB2) (UniProt P04626). In words: ligand binding assay ('Binding Activity'), format not described; lyophilized formula B6 after 37 C for 1 month.
Experiment [4] addresses Her2 (ErbB2) (UniProt P04626). Nature of the experiment: ligand binding assay ('Binding Activity'), format not described; lyophilized formula B2 after 4 C for 6 months.
Experiment [5] deals with Her2 (ErbB2) (UniProt P04626). Nature of the experiment: ligand binding assay ('Binding Activity'), format not described; lyophilized formula B4 after 4 C for 6 months.
In experiment [6] the target is Her2 (ErbB2) (UniProt P04626). Nature of the experiment: ligand binding assay ('Binding Activity'), format not described; lyophilized formula B6 after 4 C for 6 months.
The target of experiment [7] is Her2 (ErbB2) (UniProt P04626). Nature of the experiment: ligand binding assay ('Binding Activity'), format not described; lyophilized formula B2 after 25 C for 3 months.
Experiment [8] addresses Her2 (ErbB2) (UniProt P04626). Nature of the experiment: ligand binding assay ('Binding Activity'), format not described; lyophilized formula B4 after 25 C for 3 months.
Experiment [9] deals with Her2 (ErbB2) (UniProt P04626). Nature of the experiment: ligand binding assay ('Binding Activity'), format not described; lyophilized formula B6 after 25 C for 3 months.

B1: recombinant humanized anti-Her2 monoclonal antibody-MMAE conjugate (RC48-vc-MMAE) (antibody, INN chains, looked up, V domains shown, not shown: a dimerising Fc or GST)
VH: EVQLVQSGAEVKKPGATVKISCKVSGYTFTDYYIHWVQQAPGKGLEWMGRVNPDHGDSYYNQKFKDKATITADKSTDTAYMELSSLRSEDTAVYFCARNYLFDHWGQGTLVTVSS
VL: DIQMTQSPSSVSASVGDRVTITCKASQDVGTAVAWYQQKPGKAPKLLIYWASIRHTGVPSRFSGSGSGTDFTLTISSLQPEDFATYYCHQFATYTFGGGTKVEIK
modifications: vedotin: mc-vc-PAB-MMAE payload
For the molecule B1, the IC50 turned out to be 0.0152 nM in experiment [1]; 0.0126 nM in [2]; 0.0148 nM in experiment [3]; 0.0132 nM in [4]; 0.0122 nM in [5]; 0.0133 nM in [6]. Also, the IC50 stood at 0.0133 nM in experiment [7], 0.0127 nM in experiment [8] and 0.0129 nM in experiment [9].

By IC50 is commonly meant the point on the concentration scale where inhibition reaches its midpoint. A low value points to inhibition by little substance.
